First the molecules themselves.
T1: Placenta Growth Factor (PlGF), human (human, UniProt P49763 21-149)
T1 chain: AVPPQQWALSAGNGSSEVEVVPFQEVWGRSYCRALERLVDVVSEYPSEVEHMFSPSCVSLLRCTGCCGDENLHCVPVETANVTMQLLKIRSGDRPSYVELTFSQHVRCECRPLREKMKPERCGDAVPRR

B1: HC 10/SLC 15 (antibody)
chain 1: GQGTLVTVSSASTKGPSVFPQPVLHQPPAMSSALGTTIRLTCTLRNDHDIGVYSVYWYQQRPGHPPRFLLRYFSQSDKSQGPQVPPRFSGSKDVARNRGYLSISELQPEDEAMYYCAMGARSRCWPRGFQSKHNSVTHVFGSGTQLTVLSQPKATPSVTLFPPSSEELQANKATLVCLMNDFYPGILTVTWKADGTPITQGVEMTTPSKQSNNKYAASSYLSLTPEQWRSRRSYSCQVMHEGSTVEKTVAPAECS
chain 2: MSWAPVLLMLFVYCTGCGPQPVLHQPPAMSSALGTTIRLTCTLRNDHDIGVYSVYWYQQRPGHPPRFLLRYFSQSDKSQGPQVPPRFSGSKDVARNRGYLSISVTHVFGSGTQLTVLSQPKATPSVTGGGGSQVQLVQ
B2: HC 4/SLC 4 (antibody)
chain 1: GQGTLVTVSSASTKQPVLHQPPAMSSALGTTIRLTCTLRNDHDIGVYSVYWYQQRPGHPPRFLLRYFSQSDKSQGPQVPPRFSGSKDVARNRGYLSISELQPEDEAMYYCAMGARSRCWPRGFQSKHNSVTHVFGSGTQLTVLSQPKATPSVTLFPPSSEELQANKATLVCLMNDFYPGILTVTWKADGTPITQGVEMTTPSKQSNNKYAASSYLSLTPEQWRSRRSYSCQVMHEGSTVEKTVAPAECS
chain 2: MSWAPVLLMLFVYCTGCGPQPVLHQPPAMSSALGTTIRLTCTLRNDHDIGVYSVYWYQQRPGHPPRFLLRYFSQSDKSQGPQVPPRFSGSKDVARNRGYLSISVTHVFGSGTQLTVLSQPKQVQLVQ
B3: HC 4/SLC 2 (antibody)
chain 1: B2 chain 1
chain 2: MSWAPVLLMLFVYCTGCGPQPVLHQPPAMSSALGTTIRLTCTLRNDHDIGVYSVYWYQQRPGHPPRFLLRYFSQSDKSQGPQVPPRFSGSKDVARNRGYLSISVTHVFGSGTQLTVLSQQVQLVQ
B4: HC 6/SLC 6 (antibody)
chain 1: GQGTLVTVSSASTKGPQPVLHQPPAMSSALGTTIRLTCTLRNDHDIGVYSVYWYQQRPGHPPRFLLRYFSQSDKSQGPQVPPRFSGSKDVARNRGYLSISELQPEDEAMYYCAMGARSRCWPRGFQSKHNSVTHVFGSGTQLTVLSQPKATPSVTLFPPSSEELQANKATLVCLMNDFYPGILTVTWKADGTPITQGVEMTTPSKQSNNKYAASSYLSLTPEQWRSRRSYSCQVMHEGSTVEKTVAPAECS
chain 2: MSWAPVLLMLFVYCTGCGPQPVLHQPPAMSSALGTTIRLTCTLRNDHDIGVYSVYWYQQRPGHPPRFLLRYFSQSDKSQGPQVPPRFSGSKDVARNRGYLSISVTHVFGSGTQLTVLSQPKATQVQLVQ
B5: HC 8/SLC 6 (antibody)
chain 1: GQGTLVTVSSASTKGPSVQPVLHQPPAMSSALGTTIRLTCTLRNDHDIGVYSVYWYQQRPGHPPRFLLRYFSQSDKSQGPQVPPRFSGSKDVARNRGYLSISELQPEDEAMYYCAMGARSRCWPRGFQSKHNSVTHVFGSGTQLTVLSQPKATPSVTLFPPSSEELQANKATLVCLMNDFYPGILTVTWKADGTPITQGVEMTTPSKQSNNKYAASSYLSLTPEQWRSRRSYSCQVMHEGSTVEKTVAPAECS
chain 2: B4 chain 2
B6: HC 3/SLC 3 (antibody)
chain 1: GQGTLVTVSSASTQPVLHQPPAMSSALGTTIRLTCTLRNDHDIGVYSVYWYQQRPGHPPRFLLRYFSQSDKSQGPQVPPRFSGSKDVARNRGYLSISELQPEDEAMYYCAMGARSRCWPRGFQSKHNSVTHVFGSGTQLTVLSQPKATPSVTLFPPSSEELQANKATLVCLMNDFYPGILTVTWKADGTPITQGVEMTTPSKQSNNKYAASSYLSLTPEQWRSRRSYSCQVMHEGSTVEKTVAPAECS
chain 2: MSWAPVLLMLFVYCTGCGPQPVLHQPPAMSSALGTTIRLTCTLRNDHDIGVYSVYWYQQRPGHPPRFLLRYFSQSDKSQGPQVPPRFSGSKDVARNRGYLSISVTHVFGSGTQLTVLSQPQVQLVQ
B7: HC 3/SLC 2 (antibody)
chain 1: B6 chain 1
chain 2: B3 chain 2
B8: HC 8/SLC 3 (antibody)
chain 1: B5 chain 1
chain 2: B6 chain 2
B9: HC 6/SLC 3 (antibody)
chain 1: B4 chain 1
chain 2: B6 chain 2
B10: HC 2/SLC 7 (antibody)
chain 1: GQGTLVTVSSASQPVLHQPPAMSSALGTTIRLTCTLRNDHDIGVYSVYWYQQRPGHPPRFLLRYFSQSDKSQGPQVPPRFSGSKDVARNRGYLSISELQPEDEAMYYCAMGARSRCWPRGFQSKHNSVTHVFGSGTQLTVLSQPKATPSVTLFPPSSEELQANKATLVCLMNDFYPGILTVTWKADGTPITQGVEMTTPSKQSNNKYAASSYLSLTPEQWRSRRSYSCQVMHEGSTVEKTVAPAECS
chain 2: MSWAPVLLMLFVYCTGCGPQPVLHQPPAMSSALGTTIRLTCTLRNDHDIGVYSVYWYQQRPGHPPRFLLRYFSQSDKSQGPQVPPRFSGSKDVARNRGYLSISVTHVFGSGTQLTVLSQPKATPQVQLVQ
B11: HC 10/SLC 7 (antibody)
chain 1: B1 chain 1
chain 2: B10 chain 2
B12: HC 2/SLC 5 (antibody)
chain 1: B10 chain 1
chain 2: MSWAPVLLMLFVYCTGCGPQPVLHQPPAMSSALGTTIRLTCTLRNDHDIGVYSVYWYQQRPGHPPRFLLRYFSQSDKSQGPQVPPRFSGSKDVARNRGYLSISVTHVFGSGTQLTVLSQPKAQVQLVQ
B13: HC 8/SLC 7 (antibody)
chain 1: B5 chain 1
chain 2: B10 chain 2

The first test addresses T1, Placenta Growth Factor (PlGF), human. The experiment in a line: ELISA.
B1: it took 0.049 nM to reach a half-maximal effect (EC50).

B2 came in with a half-maximal effective concentration (EC50) of 0.196 nM.

In turn, B3 showed an EC50 of 0.188 nM.

As to B4, the 50% effective concentration (EC50) stood at 0.139 nM. This EC50 and that of the molecule before are within 1.5-fold of each other.

Molecule B5 gave a concentration giving a half-maximal response (EC50) of 0.128 nM.

The molecule B6 displayed an EC50 of 0.135 nM.

Consider B7, for which a half-maximal effect (EC50) was put at 0.163 nM.

B8 had an EC50 of 0.196 nM.

B9: the EC50 was determined as 0.16 nM. This EC50 and that of the molecule before are within 1.5-fold of each other.

Regarding B10, it took 0.148 nM to reach a half-maximal effect (EC50). The EC50 values of the last two molecules are within 1.5-fold of each other.

The molecule B11 came in with a concentration for a half-maximal effect (EC50) of 0.056 nM.

The molecule B12 registered an EC50 of 0.248 nM.

B13 displayed a 50% effective concentration (EC50) of 0.085 nM. Compared with the last molecule, the EC50 is about 2.9-fold lower.

For a further test, the target named is Hepatocyte Growth Factor (HGF), human (human, UniProt P14210 32-728). Nature of the test: ELISA.
Hepatocyte Growth Factor (HGF), human, sequence (P14210 32-728): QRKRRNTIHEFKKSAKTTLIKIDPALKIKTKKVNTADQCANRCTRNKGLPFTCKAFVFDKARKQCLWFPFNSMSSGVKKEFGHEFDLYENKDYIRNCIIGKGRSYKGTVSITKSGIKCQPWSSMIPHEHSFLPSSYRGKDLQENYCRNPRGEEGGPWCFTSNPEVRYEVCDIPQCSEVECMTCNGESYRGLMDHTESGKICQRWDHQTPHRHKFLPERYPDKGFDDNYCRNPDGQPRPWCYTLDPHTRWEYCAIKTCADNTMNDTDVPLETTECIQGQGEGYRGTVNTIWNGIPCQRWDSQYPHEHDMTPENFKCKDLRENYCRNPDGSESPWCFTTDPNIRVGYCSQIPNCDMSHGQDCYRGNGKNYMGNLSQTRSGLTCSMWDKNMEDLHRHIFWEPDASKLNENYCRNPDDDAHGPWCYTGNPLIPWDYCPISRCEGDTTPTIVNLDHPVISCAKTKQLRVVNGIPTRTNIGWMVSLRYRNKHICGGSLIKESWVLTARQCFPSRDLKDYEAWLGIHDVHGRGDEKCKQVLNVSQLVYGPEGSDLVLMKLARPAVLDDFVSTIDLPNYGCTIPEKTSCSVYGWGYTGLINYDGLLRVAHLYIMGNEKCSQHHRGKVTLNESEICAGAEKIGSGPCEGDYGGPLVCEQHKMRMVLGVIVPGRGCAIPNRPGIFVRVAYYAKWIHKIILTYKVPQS
Turning to B1, it took 0.054 nM to reach a half-maximal effect (EC50).

B2 gave a half-maximal effective concentration (EC50) of 0.058 nM.

B3 had a half-maximal effective concentration (EC50) of 0.053 nM.

B4 displayed an EC50 of 0.061 nM. This EC50 and that of the molecule before are within 1.5-fold of each other.

Turning to B5, the EC50 is 0.061 nM.

Regarding B6, the EC50 stood at 0.055 nM.

B7 came in with an EC50 of 0.053 nM.

In turn, B8 yielded a concentration giving a half-maximal response (EC50) of 0.071 nM.

As for B9, a half-maximal response (EC50) required 0.069 nM.

Take B10: a half-maximal effect (EC50) was put at 0.055 nM.

B11 registered an EC50 of 0.059 nM.

For the molecule B12, a half-maximal effect (EC50) was put at 0.052 nM. This EC50 and that of the molecule before are within 1.5-fold of each other.

The molecule B13 returned a concentration for a half-maximal effect (EC50) of 0.058 nM.

(Values after patent publication US20150045540A1 (published 2015).)
